{
  "source": "patent US20240158475A1",
  "binders": {"B1": {"name": "Mutation 1 (antibody, V domains shown)", "VH": "EVQLQQSGTELVRPGALVKLSCKASGFNIKDYYVHWVKQRPRQGLEWIGWIDPENGKTLYDPKFQDKASITSDTSTNTAYLQLRSLTSEDTAVYYCVTAYVRFVYWGQGTLVTVSA", "VL": "QIVLTQSPAIMSAFPGERVTMTCSASSSVRYMYWHQQKPGSSPRLLIYDTSNVASGVPVRFSGSGSGTSYSLTISRDEAMDAATYYCQQWSSTPRTFGGGTKLEIKR"}},
  "key": {"[1]": {"molecular_target": "DN-III-NS antigen (produced by Fapon Biotech InC.) (dengue virus)", "assay": "capture ELISA, antibody sample 81-fold dilution"}, "[2]": {"molecular_target": "DN-III-NS antigen (produced by Fapon Biotech InC.) (dengue virus)", "assay": "capture ELISA, antibody sample 729-fold dilution"}, "[3]": {"molecular_target": "DN-III-NS antigen (produced by Fapon Biotech InC.) (dengue virus)", "assay": "capture ELISA, antibody sample 9-fold dilution"}, "[4]": {"molecular_target": "DN-III-NS antigen (produced by Fapon Biotech InC.) (dengue virus)", "assay": "capture ELISA, antibody sample 243-fold dilution"}, "[5]": {"molecular_target": "DN-III-NS antigen (produced by Fapon Biotech InC.) (dengue virus)", "assay": "capture ELISA, antibody sample 27-fold dilution"}, "[6]": {"molecular_target": "DN-III quality control recombinant protein (produced by Fapon Biotech InC.) (dengue virus)", "assay": "BLI, AMC sensor, antibody captured"}, "[7]": {"molecular_target": "DN-III-NS antigen (produced by Fapon Biotech InC.) (dengue virus)", "assay": "capture ELISA (anti-mouse IgG / antibody / antigen / HRP-mAb), antibody sample Original"}, "[8]": {"molecular_target": "DN-III-NS antigen (produced by Fapon Biotech InC.) (dengue virus)", "assay": "capture ELISA, antibody sample 3-fold dilution"}},
  "data": [
    {"binder": "B1", "values": [
      {"measurement": "OD450 (ref. 630 nm)", "setting": "[1]", "value": 0.918, "unit": "OD"},
      {"measurement": "OD450 (ref. 630 nm)", "setting": "[2]", "value": 0.188, "unit": "OD"},
      {"measurement": "OD450 (ref. 630 nm)", "setting": "[3]", "value": 2.29, "unit": "OD"},
      {"measurement": "OD450 (ref. 630 nm)", "setting": "[4]", "value": 0.361, "unit": "OD"},
      {"measurement": "OD450 (ref. 630 nm)", "setting": "[5]", "value": 1.9, "unit": "OD"},
      {"measurement": "Kd", "setting": "[6]", "value": 1.07, "unit": "nM"},
      {"measurement": "koff", "setting": "[6]", "value": "4.03e-05", "unit": "s⁻¹"},
      {"measurement": "kon", "setting": "[6]", "value": 37700, "unit": "M⁻¹ s⁻¹"},
      {"measurement": "OD450 (ref. 630 nm)", "setting": "[7]", "value": 2.37, "unit": "OD"},
      {"measurement": "OD450 (ref. 630 nm)", "setting": "[8]", "value": 2.38, "unit": "OD"}
    ]}
  ]
}
